In paper PMC3792966:

Biological target: FevR of F. holarctica LVS fused to the Zif protein (F. holarctica LVS)
Experiment: two-hybrid

## MglA/SspA complex of the bridge two-hybrid system (MglA of F. tularensis SCHU S4 fused to ω, with Ss
  β-galactosidase activity in strain AW23 after 300 min: 1070 AU
  β-galactosidase activity in strain AW24 after 300 min: 1300 AU
